Assays:
[1] = biological target: Entamoeba histolytica Phosphoserine aminotransferase (Entamoeba histolytica); experiment: cross-linking; glutaraldehyde cross-linking of EhPSAT incubated at pH 9, 8, 7 and 6, analysed on 10% SDS-PAGE
[2] = biological target: Entamoeba histolytica Phosphoserine aminotransferase (Entamoeba histolytica); experiment: SEC; Superdex 200 10/300 GL column, EhPSAT at pH 6, 7, 8 and 9; calibrated with ferritin, aldolase, conalbumin and ovalbumin; also run with 200 mM NaCl or NaF

stoichiometry N [1]: 2 | stoichiometry N [2]: 2
Substance: Entamoeba histolytica Phosphoserine aminotransferase (enzyme)
